The results in this text go back to US20200392251A1 (University of California, published 2020).

Test [1] deals with T1, catalytic domain of human MMP-14 (cdMMP-14) (human, UniProt P50281 114-320).
T1 construct: range 114-320; Produced active in E. coli periplasm; biotinylated for BLI/ELISA
Kind of test: enzyme inhibition assay with FRET peptide substrate (M-2350), Fab titrated on cdMMP-14 [panel 2B10].
Protocol: (§1) For inhibition tests, 1 μM Fabs were 2-fold serially diluted into protease specific assay buffer and incubated with 1-10 nM proteases for 30 min at room temperature. […] Inhibition percentages at given concentrations were calculated by comparing the initial reaction rates in the presence or absence of inhibitor. […] Vₘₐₓ and Kₘ at various Fab concentrations were measured to determine the inhibition type. FRET inhibition assays were also used for selectivity tests of isolated Fabs with the relevant proteases.

The target of test [2] is T1, catalytic domain of human MMP-14 …. The test can be described thus: FRET peptide inhibition assay; KI=IC50/(S/Km+1).
Protocol: as §1
For test [3] the target is unchanged. The test can be described thus: bio-layer interferometry (ForteBio), biotinylated protease on streptavidin biosensor, Fab in solution [panel 2B10].
Protocol: (§2) Binding kinetics of produced antibodies towards associated protease targets were analyzed by using biolayer interferometry (ForteBio). For Fabs, biotinylated proteases were immobilized on streptavidin biosensors, and Fab binding to the sensors in absence of protease was monitored as backgrounds.
Test [4] has the same target. Kind of test: biolayer interferometry; biotinylated protease on streptavidin sensor, Fab in solution.
Protocol: as §2
Test [5] shares this target. The test can be described thus: bio-layer interferometry (ForteBio), biotinylated protease on streptavidin biosensor, Fab in solution [panel 2A6].
Protocol: as §2
Test [6] has the same target. Kind of test: enzyme inhibition assay with FRET peptide substrate (M-2350), Fab titrated on cdMMP-14 [panel 2A6].
Protocol: as §1
Test [7] addresses T2, Aspergillus fumigatus autophagic serine protease 2 (Alp2) (Aspergillus fumigatus, UniProt P87184 136-495).
T2 construct: range 136-495; Produced active in E. coli periplasm; biotinylated for BLI
T2 sequence: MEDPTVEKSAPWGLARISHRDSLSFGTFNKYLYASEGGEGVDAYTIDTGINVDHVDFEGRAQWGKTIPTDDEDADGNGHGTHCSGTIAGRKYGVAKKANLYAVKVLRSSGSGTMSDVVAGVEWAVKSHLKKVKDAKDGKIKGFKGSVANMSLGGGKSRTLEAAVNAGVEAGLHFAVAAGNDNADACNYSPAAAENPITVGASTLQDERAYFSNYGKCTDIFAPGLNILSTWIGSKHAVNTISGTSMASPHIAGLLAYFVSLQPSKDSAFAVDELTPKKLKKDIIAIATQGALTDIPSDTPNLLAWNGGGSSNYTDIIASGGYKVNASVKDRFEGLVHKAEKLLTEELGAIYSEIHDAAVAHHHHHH
Kind of test: enzyme inhibition assay with FRET peptide substrate (Mca-[..](Dnp)), Fab titrated on Alp2 [panel A4A2].
Protocol: as §1

Test [8] addresses T2, Aspergillus fumigatus autophagic serine …. The test can be described thus: enzyme inhibition assay with FRET peptide substrate, Fab titrated on Alp2 [panel B].
Protocol: as §1
Test [9] deals with T3, human MMP-12 catalytic domain mutant D4 (cdMMP-12 D4) (human).
T3 construct: PROSS-designed expression-optimised mutant; Cytoplasmically expressed in E. coli, purified on Ni-NTA; biotinylated for ELISA/BLI; also called cdMMP-12 mutant D4; modified D4
T3 sequence (chain, as listed by the source mutant limits assumed): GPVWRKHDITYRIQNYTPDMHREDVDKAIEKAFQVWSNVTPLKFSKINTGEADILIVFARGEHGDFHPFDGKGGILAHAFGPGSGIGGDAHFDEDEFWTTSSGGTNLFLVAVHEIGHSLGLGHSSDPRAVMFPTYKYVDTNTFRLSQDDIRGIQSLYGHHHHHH
The test can be described thus: competitive ELISA: nTIMP-2 (0.8-200 µM) premixed with 500 nM Fab LH11 (the competitor displaced), added to immobilised cdMMP-12 D4, bound Fab detected with anti-Fab-HRP (OD450) [panel A, right].
Protocol: (§3) On streptavidin coated ELISA plates, 5 μg/mL biotinylated cdMMPs were immobilized and incubated with two-fold serially diluted purified Fabs. Bound Fabs were detected with anti-Fab-HRP (Sigma-Aldrich), and signals were developed by TMB substrate (Thermo Scientific) and measured using a microplate reader (BioTek). […] Bound Fabs were detected using anti-Fab-HRP.

The target of test [10] is T4, human MMP-12 catalytic domain wild type (cdMMP-12 wt) (human, UniProt P39900 106-263).
T4 construct: biotinylated for ELISA/BLI; also called wt cdMMP-12; cdMMP-12 wide-type
T4 sequence (P39900 other isoform, or with tags, fused parts or gaps limits assumed): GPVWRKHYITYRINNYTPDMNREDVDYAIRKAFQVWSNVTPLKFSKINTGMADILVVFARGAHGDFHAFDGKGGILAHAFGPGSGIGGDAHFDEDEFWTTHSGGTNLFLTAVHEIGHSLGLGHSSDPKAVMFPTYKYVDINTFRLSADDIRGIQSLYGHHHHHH
Kind of test: competitive ELISA: nTIMP-2 (0.8-200 µM) premixed with 500 nM Fab LH6 (the competitor displaced), added to immobilised cdMMP-12 wt, bound Fab detected with anti-Fab-HRP (OD450) [panel B, right].
Protocol: as §3

The target of test [11] is T3, human MMP-12 catalytic domain mutant D4 …. The test can be described thus: competitive ELISA: nTIMP-2 (0.8-200 µM) premixed with 500 nM Fab LG4 (the competitor displaced), added to immobilised cdMMP-12 D4, bound Fab detected with anti-Fab-HRP (OD450) [panel A, right].
Protocol: as §3
Test [12] concerns the target T4, human MMP-12 catalytic domain wild type …. Kind of test: competitive ELISA: nTIMP-2 (0.8-200 µM) premixed with 500 nM Fab LG4 (the competitor displaced), added to immobilised cdMMP-12 wt, bound Fab detected with anti-Fab-HRP (OD450) [panel B, right].
Protocol: as §3
Test [13] deals with T3, human MMP-12 catalytic domain mutant D4 …. The test can be described thus: competitive ELISA: nTIMP-2 (0.8-200 µM) premixed with 500 nM Fab LH6 (the competitor displaced), added to immobilised cdMMP-12 D4, bound Fab detected with anti-Fab-HRP (OD450) [panel A, right].
Protocol: as §3
Test [14] addresses T4, human MMP-12 catalytic domain wild type …. Kind of test: BLItz bio-layer interferometry; printed as 'Affinity ... (nM)'.
The target is the same in test [15]. Kind of test: competitive ELISA: nTIMP-2 (0.8-200 µM) premixed with 500 nM Fab LH11 (the competitor displaced), added to immobilised cdMMP-12 wt, bound Fab detected with anti-Fab-HRP (OD450) [panel B, right].
Protocol: as §3
The target of test [16] is T1, catalytic domain of human MMP-14 …. The test can be described thus: bio-layer interferometry (ForteBio), biotinylated protease on streptavidin biosensor, Fab in solution [panel 2D9].
Protocol: as §2
For test [17] the target is unchanged. Kind of test: enzyme inhibition assay with FRET peptide substrate (M-2350), Fab titrated on cdMMP-14 [panel 2D9].
Protocol: as §1

B1: anti-MMP-14 Fab 2B10 (Fab, V domains shown)
VH: EVQLVESGGGLVQPGGSLRLSCAASGFNIYYSYMHWVRQAPGKGLEWVASIYPSYGYTYYADSVKGRFTISADTSKNTAYLQMNSLRAEDTAVYYCARQLFACWRQSILTPPLLSAMMMGYAMDYWGQGTLVTVSS
VL: DIQMTQSPSSLSASVGDRVTITCRASQSVSSAVAWYQQKPGKAPKLLIYSASSLYSGVPSRFSGSRSGTDFTLTISSLQPEDFATYYCQQYSVAYVWLITFGQGTKVEIKR
notes: Fab from a synthetic human Fab library, produced in E. coli periplasm; also called Clone 2B10
The molecule B1 showed a 50% inhibitory concentration (IC50) in test [1] of 240 nM. This molecule yielded a Ki in test [2] of 210 nM. Moreover, in test [3], the off-rate (koff) was determined as 0.0018 s⁻¹ and the on-rate (kon) was 40000 M⁻¹ s⁻¹. In test [4], this molecule displayed an equilibrium dissociation constant (Kd) of 46 nM.

B2: anti-MMP-14 Fab 2A6 (Fab, V domains shown)
VH: EVQLVESGGGLVQPGGSLRLSCAASGFNFSSSSIHWVRQAPGKGLEWVASISSSYGYTYYADSVKGRFTISADTSKNTAYLQMNSLRAEDTAVYYCARVVRMLPVRCIPRCIKTTLPLYGMDYWGQGTLVTVSS
VL: DIQMTQSPSSLSASVGDRVTITCRASQSVSSAVAWYQQKPGKAPKLLIYSASSLYSGVPSRFSGSRSGTDFTLTISSLQPEDFATYYCQQSSFPFTFGQGTKVEIKR
notes: Fab from a synthetic human Fab library, produced in E. coli periplasm; also called Clone 2A6
In [5], B2 registered an off-rate constant (koff) of 0.003 s⁻¹ and a kon of 24000 M⁻¹ s⁻¹. The affinity in [2] corresponds to a Ki of 430 nM. The molecule further had a Kd in [4] of 130 nM. In test [6], this molecule returned an IC50 of 480 nM.

B3: anti-Alp2 Fab A4A2 (Fab, V domains shown)
VH: EVQLVESGGGLVQPGGSLRLSCAASGFNLSSSSMHWVRQAPGKGLEWVASIYPSYSYTYYADSVKGRFTISADTSKNTAYLQMNSLRAEDTAVYYCARKTSDQYLLVGGSFFKLRDCCYVMDYWGQGTLVTVSS
VL: DIQMTQSPSSLSASVGDRVTITCRASQSVSSAVAWYQQKPGKAPKLLIYSASSLYSGVPSRFSGSRSGTDFTLTISSLQPEDFATYYCQQASHLITFGQGTKVEIKR
notes: Fab from a synthetic human Fab library, produced in E. coli periplasm; also called Clone A4A2
In test [7], B3 returned an IC50 of 250 nM.

B4: anti-Alp2 Fab A4A1 (Fab, V domains shown)
VH: EVQLVESGGGLVQPGGSLRLSCAASGFNISSYYIHWVRQAPGKGLEWVASIYSYSSYTYYADSVKGRFTISADTSKNTAYLQMNSLRAGDTAVYYCARFGSWSYAIDYWGQGTLVTVSS
VL: DIQMTQSPSSLSASVGDRVTITCRASQSVSSAVAWYQQKPGKAPKLLIYSASSLYSGVPSRFSGSRSGTDFTLTISSLQPEDFATYYCQQASHLITFGQGTKVEIKR
notes: Fab from a synthetic human Fab library, produced in E. coli periplasm; also called Clone A4A1
The molecule B4 came in with a 50% inhibitory concentration (IC50) in test [8] of 15 nM.

B5: N-terminal domain of tissue inhibitor of metalloproteinases 2 (nTIMP-2) (other, UniProt P16035 27-153, looked up)
chain: CSCSPVHPQQAFCNADVVIRAKAVSEKEVDSGNDIYGNPIKRIQYEIKQIKMFKGPEKDIEFIYTAPSSAVCGVSLDVGGKKEYLIAGKAEGDGKMHITLCDFIVPWDTLSTTQKKSLNHRYQMGCE
notes: domain: N-terminal domain; Periplasmically expressed and purified as reported elsewhere
For B5, the EC50 in test [9] was determined as 18000 nM; in [10], 32000 nM; in [11], 42000 nM; in [12], 44000 nM; in [13], 23000 nM; in test [15] it was 26000 nM. The molecule also displayed a Kd in test [14] of 150 nM.

B6: anti-MMP-14 Fab 2D9 (Fab, V domains shown)
VH: EVQLVESGGGLVQPGGSLRLSCAASGFNISSSSMHWVRQAPGKGLEWVASIYPYYGYTYYADSVKGRFTISADTSKNTAYLQMNSLRAEDTAVYYCARGVTRFTNDASVGQVWAGAYGMDYWGQGTLVTVSS
VL: DIQMTQSPSSLSASVGDRVTITCRASQSVSSAVAWYQQKPGKAPKLLIYSASSLYSGVPSRFSGSRSGTDFTLTISSLQPEDFATYYCQQSSYSLITFGQGTKVEIKR
notes: Fab from a synthetic human Fab library, produced in E. coli periplasm; also called Clone 2D9
In test [2], B6 showed a Ki of 230 nM. In test [16], this molecule came in with a dissociation rate constant (koff) of 0.0039 s⁻¹ and a kon of 15000 M⁻¹ s⁻¹. The same molecule yielded a Kd in test [4] of 260 nM. Further, the IC50 in test [17] came out at 260 nM.
